Test results published in patent US20240392262A1, “TRANSPOSASE AND USES THEREOF” (Poseida Therapeutics, Inc., published 2024).

Experiments:
[1] = target: T1, PAH6 Left TAL-PBx (synthetic construct); experiment: cell_activity; left only; details: tags: 3xFlag, SV40 NLS
T1 chain: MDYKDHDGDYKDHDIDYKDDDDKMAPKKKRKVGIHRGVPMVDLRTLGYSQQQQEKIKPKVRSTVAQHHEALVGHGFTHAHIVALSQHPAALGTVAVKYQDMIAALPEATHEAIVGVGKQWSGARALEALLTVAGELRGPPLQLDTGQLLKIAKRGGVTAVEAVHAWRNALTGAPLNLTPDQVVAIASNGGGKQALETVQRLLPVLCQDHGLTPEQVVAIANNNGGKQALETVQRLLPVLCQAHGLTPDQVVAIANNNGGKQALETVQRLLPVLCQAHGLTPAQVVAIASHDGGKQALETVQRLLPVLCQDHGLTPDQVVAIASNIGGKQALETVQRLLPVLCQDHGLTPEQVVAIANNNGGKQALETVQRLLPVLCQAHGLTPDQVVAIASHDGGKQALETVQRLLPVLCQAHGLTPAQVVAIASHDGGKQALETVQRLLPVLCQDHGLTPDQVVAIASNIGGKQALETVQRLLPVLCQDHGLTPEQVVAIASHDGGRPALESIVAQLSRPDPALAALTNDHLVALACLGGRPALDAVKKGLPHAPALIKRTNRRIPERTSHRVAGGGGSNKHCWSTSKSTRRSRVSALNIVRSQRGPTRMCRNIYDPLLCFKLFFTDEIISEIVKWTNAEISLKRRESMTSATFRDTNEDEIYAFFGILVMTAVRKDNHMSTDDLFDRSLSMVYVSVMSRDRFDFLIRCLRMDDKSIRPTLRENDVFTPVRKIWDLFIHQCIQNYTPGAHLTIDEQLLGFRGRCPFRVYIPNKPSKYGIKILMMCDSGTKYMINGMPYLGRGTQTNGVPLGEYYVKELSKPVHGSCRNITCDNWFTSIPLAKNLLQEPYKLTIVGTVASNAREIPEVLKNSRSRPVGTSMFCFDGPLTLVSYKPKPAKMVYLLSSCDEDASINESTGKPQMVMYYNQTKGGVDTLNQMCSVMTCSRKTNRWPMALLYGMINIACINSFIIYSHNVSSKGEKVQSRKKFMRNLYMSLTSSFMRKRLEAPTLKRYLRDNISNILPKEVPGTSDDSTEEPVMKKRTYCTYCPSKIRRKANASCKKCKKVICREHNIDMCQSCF

[2] = target: T2, PAH6 Right TAL-PBx (synthetic construct); experiment: cell_activity; right only; details: tags: 3xFlag, SV40 NLS
T2 chain: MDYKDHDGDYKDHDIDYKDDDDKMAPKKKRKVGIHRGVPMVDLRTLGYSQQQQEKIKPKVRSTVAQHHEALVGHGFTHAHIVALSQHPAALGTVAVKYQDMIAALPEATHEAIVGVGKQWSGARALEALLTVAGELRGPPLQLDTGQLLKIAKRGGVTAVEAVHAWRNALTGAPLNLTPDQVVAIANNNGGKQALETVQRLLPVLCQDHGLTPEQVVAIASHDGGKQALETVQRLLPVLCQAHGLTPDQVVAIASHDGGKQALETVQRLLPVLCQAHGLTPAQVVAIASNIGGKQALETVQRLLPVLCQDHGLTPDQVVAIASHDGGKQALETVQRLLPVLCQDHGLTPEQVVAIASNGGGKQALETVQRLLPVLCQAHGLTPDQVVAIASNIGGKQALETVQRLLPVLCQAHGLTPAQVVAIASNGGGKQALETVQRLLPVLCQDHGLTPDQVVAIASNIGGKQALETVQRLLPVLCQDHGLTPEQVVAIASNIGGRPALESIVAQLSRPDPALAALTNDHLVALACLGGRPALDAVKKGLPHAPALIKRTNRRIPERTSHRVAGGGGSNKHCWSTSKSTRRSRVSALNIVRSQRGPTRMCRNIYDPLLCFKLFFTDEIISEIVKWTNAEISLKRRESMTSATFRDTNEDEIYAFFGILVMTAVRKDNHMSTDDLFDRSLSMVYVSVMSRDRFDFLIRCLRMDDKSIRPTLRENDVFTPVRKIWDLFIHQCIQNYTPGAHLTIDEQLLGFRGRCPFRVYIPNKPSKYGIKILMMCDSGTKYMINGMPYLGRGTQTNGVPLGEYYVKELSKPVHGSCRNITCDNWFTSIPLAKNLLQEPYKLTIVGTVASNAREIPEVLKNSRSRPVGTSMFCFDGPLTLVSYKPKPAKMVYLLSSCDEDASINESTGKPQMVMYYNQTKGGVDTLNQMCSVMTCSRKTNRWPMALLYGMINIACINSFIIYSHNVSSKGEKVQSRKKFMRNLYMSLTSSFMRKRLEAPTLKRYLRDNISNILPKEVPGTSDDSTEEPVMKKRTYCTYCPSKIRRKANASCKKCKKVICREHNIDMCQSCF

B1: PAH6 target (dsDNA)
DNA 1: TTGGCAGCCACTGTCCTAAATATTTTAACCAAATCAAAATCTTATAGTGGCA
DNA 2: TGCCACTATAAGATTTTGATTTGGTTAAAATATTTAGGACAGTGGCTGCCAA
activity [1]: 2.7 % GFP+ | activity [2]: 2.5 % GFP+
